Test results taken from a protein production outcome set (Wang et al. 2014).

Assay: label from the status in PepcDB records

Row | Sequence | protein production
1 | MDEKEKNLNENSENESTPKREVEDTLHTPESAQPVQETPIVEGVTPEGEKFAGATEDAAEASSTNAFFEEASNKESEPARPAPGPRRAGTTGGGAVPPNRVNNGGSGNGNGEPPKRGKHFIGYFLTALIGVIIGGLIIFFVAWDNGDNADTTSNSNNKATKVEKVSVDTTSDVTKAVDKVQDAVVSVLNYQSSSSLDGTTTSEQEASSGSGVIYKKANGKAYIVTNNHVVADANKLEVTFTNGKKSEAKLLGTDEWNDLAVLEIDDKNVTTVAAFGDSDSLKLGEPAIAIGSPLGTEFSGSVTQGIISGLNRAVPVDTNGDGTEDWEADVIQTDAAINPGNSGGALINIEGQVIGINSMKISMENVEGISFAIPSNTVEPIIEQLETKGEVERPSLGVSLRDVDTIPETQQKNILKLPDSVDYGAMVQQVVSGSAADKAGLKQYDVIVELNGQKVTNSMTLRKILYGNDVKIGDKVKVKYYRDGKEKSTDIKLEAAKTTT | failed
2 | MTRLRGTLSVCIDAFPAWTRPLALAFVVYALSFGMRMLEYPAWQNPEYMLDGEYLLATHDAYHWIAGAEGFEFGAGHPMSELVRLAAAFTGTTPAAVGFWLPPVMASLVAVGVFGWAAALGGVEAGVCAGVLASLAPGFLARTLLGYCDTDLVTLLFPLLMGLGPAFWMARFMFTPLQVARRLLARRTGTSDVVPDAVAVMMTSRGEADDDWHGGALSPRWLALLAGSGLVGSWGAEWHSLFPYLIRYDVVLLFGCICVFGRPGMRRALLVGGLAYALPMLVGAWGLLFALALGWGLHRADARFMAFVRGRALPVAGWCAVAVLLFDPDVFRMFLNSIAGYVKRSGDPSPGAGGDDPLVYPSVAQSIIEVQDLSLSEVLSYFHPWLWVALAGLGGFVPLLLARPAAFFLLPLGVLSFLSVKLGGRMVMFGAPVLALGFALPMVWGVQRVLRHDLRTGWVRLALSAVLLVIVATPFVDLLPAMTQGPIINKRHAEALRHIRTATPEDSMVWIWWDWGYSAHHFAHRRTIADGASHGGPSLYVPAAVFSTANPRFAWQLIRYTAERGGIPGSVFEGMGGAQAQELVHRLGIEKMTFADAPRQYLVVSYDMLRLGFWITNFGTWDFLSREGKGYAISSIPQQLSYSLDTGEVQVQGNTTGVLASTIDVFDEGQLERRDYIVRQGGSGNAIADYAARQRNIESRRNIHFLFNKVTGEKLVLDDRLYNTVMVQLLLCSPDDTRFAPYFKLIYDNVYARVYEVR | failed
3 | MRENIIEFIPKEKPCSYLKEERSLFRYFHIEECSSDLYQALLERGWRRFGKYFFVPICKNCKACLSVRKPLANLEFSRSFKRVLSKNRQTGLVIQRPMITEAHLKLYDRYHRRMSEKKGWEYSPITMESYYEMFVEGSGEFGYEFAYYRDERLVGIALVDILERSLSAVYCFYDHDYSDFSLGIFSILKQLELAKRLKIDYFYPGYWIKNHPSMGYKERFAPYEILRNEPDIDALPEWSLQGENE | failed
4 | MTLVVPFDGSELAEAALVRAAEFGTVFEEDVLAVSVIRNGNAKYAREHDWIGPNEDFDLEAVVTSLHEQVIDLCPSSDFRHTVVDRYAPAGAVAKAIRKLAKREDASMVFIGSENAGHLVTSISSVGGSIASDDAYDVVIVRHRNPSKIAKLRNTSPHRQSKSDFYLPE | failed
5 | MLLSYVYKLNPSLKQAETMERWLHLLRLQYNFRVRERTEAYEQAKAPVMGNYCILQTQAECCPLTCSVSKGALYGNPWSTKGKKRSPLAQQDANLVDLKKERPWYGEICYHVLQQMLKQVDTAFVRFFKGLGKYPKTKRRGKLRSFTYPTGDVGFKGNKVRLPGLGWMRFFQSRPFPLGFKIRSTTVRKKANGFYISVLLQDDTVPQASASQQIQTALGVDLGIKKLISLSTGETIANPRFYKQMERKRSRLNWAANRKVLGSRRRQKAYQQIAQLEQKVTNQREDYQWKIAHNLVKRFDLIVFENLNVQGMMARCKPKQDESGKYLRNGQSAKSGLNKAIADAAWGSLKLKVKILSERAGVLVHEVKPNFSSQECSECGYISPTNRDKEKFLCEHCGHHADADIDAAKVILKRGLSELGINLDAVSGVPRKQDKSTSKEPVARQGISTALAVEPGNPHQVEERLSN | failed
6 | MRIIKNIILISLLFAIILVSLFFGEKWVRTNVKNQAIVYNSQLNPTVMISGSSANNHRFDNLVAILNRQSTTHSLLRVQVNEDNSISYSGRIRPNDSQPYIVIGFQNNSDGYANIKRQAKWLEIAMKFLQKRYHFNHFNAFGHSNGGLDWTIYLEKYFNQKSSTIGTLMTVGSPFNFSEKSESNRTQMLTDLIKNRSKLPRDMTVYSIAGTETYNDDGIVPIESVLSGKYVFQKNVHSYTQITVSGNDSEHSDLPTNPQIVQLIQRDILDGRGQKQSSNPVFNNH | failed
